Source: patent publication US20250361268A1, “NOVEL ANTI-INFLAMMATORY PEPTIDE AND USE THEREOF” (NOVACELL TECHNOLOGY INC., priority 2022, published 2025)

T1: formyl peptide receptor 2 (FPR2) (UniProt P25090 1-351, limits assumed)
T1 sequence (looked up): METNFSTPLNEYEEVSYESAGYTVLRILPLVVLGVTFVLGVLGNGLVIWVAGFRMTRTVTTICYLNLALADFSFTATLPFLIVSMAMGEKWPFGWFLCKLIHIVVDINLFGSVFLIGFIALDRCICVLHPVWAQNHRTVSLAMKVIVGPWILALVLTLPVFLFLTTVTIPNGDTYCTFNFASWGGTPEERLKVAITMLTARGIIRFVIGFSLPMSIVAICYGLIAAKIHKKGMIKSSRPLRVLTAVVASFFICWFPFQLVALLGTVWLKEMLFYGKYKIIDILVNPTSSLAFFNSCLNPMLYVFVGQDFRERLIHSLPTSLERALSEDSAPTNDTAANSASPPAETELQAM

T2: FPR1 (UniProt P21462 1-350, limits assumed)
T2 sequence (looked up): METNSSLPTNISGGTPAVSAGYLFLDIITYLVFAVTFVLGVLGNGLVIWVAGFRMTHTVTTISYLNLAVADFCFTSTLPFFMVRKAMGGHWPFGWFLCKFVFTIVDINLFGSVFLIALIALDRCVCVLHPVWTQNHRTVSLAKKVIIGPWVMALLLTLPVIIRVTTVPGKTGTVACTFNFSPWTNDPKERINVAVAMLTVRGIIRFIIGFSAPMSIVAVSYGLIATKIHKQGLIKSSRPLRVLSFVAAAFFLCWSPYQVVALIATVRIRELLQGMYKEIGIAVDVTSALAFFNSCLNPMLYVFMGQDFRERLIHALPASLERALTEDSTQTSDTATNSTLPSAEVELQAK


Key:
[1] = target: T1, formyl peptide receptor 2 (FPR2); assay: cell-based or functional assay
FPR1 = target: T2, FPR1; assay: cell-based or functional assay

Binder	EC50 for [Ca2+] [1] [µM]	EC50 for [Ca2+] (FPR1) [µM]
RMRYKPM (HELM PEPTIDE1{[ac].R.M.R.Y.K.P.[dM].[am]}$$$$V2.0; SMILES CSCC[C@H](NC(=O)[C@H](CCCNC(=N)N)NC(C)=O)C(=O)N[C@@H](CCCNC(=N)N)C(=O)N[C@@H](Cc1ccc(O)cc1)C(=O)N[C@@H](CCCCN)C(=O)N1CCC[C@H]1C(=O)N[C@H](CCSC)C(N)=O) [peptide of SEQ ID NO 51]	< 0.01	> 10
RMRYKPM (HELM PEPTIDE1{[CCCCCCCC(=O)[*:2]].R.M.R.Y.K.P.[dM].[am]}$$$$V2.0; SMILES CCCCCCCC(=O)N[C@@H](CCCNC(=N)N)C(=O)N[C@@H](CCSC)C(=O)N[C@@H](CCCNC(=N)N)C(=O)N[C@@H](Cc1ccc(O)cc1)C(=O)N[C@@H](CCCCN)C(=O)N1CCC[C@H]1C(=O)N[C@H](CCSC)C(N)=O) [peptide of SEQ ID NO 53]	< 0.01	> 10
RMRYKVM (HELM PEPTIDE1{R.M.R.Y.K.V.[dM].[am]}$$$$V2.0; N-terminus assumed; SMILES CSCC[C@H](NC(=O)[C@@H](N)CCCNC(=N)N)C(=O)N[C@@H](CCCNC(=N)N)C(=O)N[C@@H](Cc1ccc(O)cc1)C(=O)N[C@@H](CCCCN)C(=O)N[C@H](C(=O)N[C@H](CCSC)C(N)=O)C(C)C) [peptide of SEQ ID NO 5]	< 0.01	> 10
MRYKPM (HELM PEPTIDE1{[ac].M.R.Y.K.P.[dM].[am]}$$$$V2.0; SMILES CSCC[C@H](NC(C)=O)C(=O)N[C@@H](CCCNC(=N)N)C(=O)N[C@@H](Cc1ccc(O)cc1)C(=O)N[C@@H](CCCCN)C(=O)N1CCC[C@H]1C(=O)N[C@H](CCSC)C(N)=O) [peptide of SEQ ID NO 55]	< 0.01	> 10
RMRYKPM (HELM PEPTIDE1{[CCCC(=O)[*:2]].R.M.R.Y.K.P.[dM].[am]}$$$$V2.0; SMILES CCCC(=O)N[C@@H](CCCNC(=N)N)C(=O)N[C@@H](CCSC)C(=O)N[C@@H](CCCNC(=N)N)C(=O)N[C@@H](Cc1ccc(O)cc1)C(=O)N[C@@H](CCCCN)C(=O)N1CCC[C@H]1C(=O)N[C@H](CCSC)C(N)=O) [peptide of SEQ ID NO 52]	< 0.01	> 10
RMRYKPM (HELM PEPTIDE1{R.M.R.Y.K.P.[dM].[am]}$$$$V2.0; N-terminus assumed; SMILES CSCC[C@H](NC(=O)[C@@H](N)CCCNC(=N)N)C(=O)N[C@@H](CCCNC(=N)N)C(=O)N[C@@H](Cc1ccc(O)cc1)C(=O)N[C@@H](CCCCN)C(=O)N1CCC[C@H]1C(=O)N[C@H](CCSC)C(N)=O) [peptide of SEQ ID NO 50]	< 0.01	> 10

Further lines, results first:

EC50 for [Ca2+] [1] [µM]	EC50 for [Ca2+] (FPR1) [µM]	Binder
< 0.01	> 10	MRYKPM (HELM PEPTIDE1{M.R.Y.K.P.[dM].[am]}$$$$V2.0; N-terminus assumed; SMILES CSCC[C@H](N)C(=O)N[C@@H](CCCNC(=N)N)C(=O)N[C@@H](Cc1ccc(O)cc1)C(=O)N[C@@H](CCCCN)C(=O)N1CCC[C@H]1C(=O)N[C@H](CCSC)C(N)=O) [peptide of SEQ ID NO 54]
< 0.01	> 10	PMRYKYM (HELM PEPTIDE1{[CCCC(=O)[*:2]].P.M.R.Y.K.Y.[dM].[am]}$$$$V2.0; SMILES CCCC(=O)N1CCC[C@H]1C(=O)N[C@@H](CCSC)C(=O)N[C@@H](CCCNC(=N)N)C(=O)N[C@@H](Cc1ccc(O)cc1)C(=O)N[C@@H](CCCCN)C(=O)N[C@@H](Cc1ccc(O)cc1)C(=O)N[C@H](CCSC)C(N)=O) [peptide of SEQ ID NO 47]
